From paper doi:10.1101/545814 (bioRxiv, 2019)

T1: MBP-Epe1 (wild-type, recombinant, full length) (S. pombe, UniProt O94603 1-948)
T1 sequence: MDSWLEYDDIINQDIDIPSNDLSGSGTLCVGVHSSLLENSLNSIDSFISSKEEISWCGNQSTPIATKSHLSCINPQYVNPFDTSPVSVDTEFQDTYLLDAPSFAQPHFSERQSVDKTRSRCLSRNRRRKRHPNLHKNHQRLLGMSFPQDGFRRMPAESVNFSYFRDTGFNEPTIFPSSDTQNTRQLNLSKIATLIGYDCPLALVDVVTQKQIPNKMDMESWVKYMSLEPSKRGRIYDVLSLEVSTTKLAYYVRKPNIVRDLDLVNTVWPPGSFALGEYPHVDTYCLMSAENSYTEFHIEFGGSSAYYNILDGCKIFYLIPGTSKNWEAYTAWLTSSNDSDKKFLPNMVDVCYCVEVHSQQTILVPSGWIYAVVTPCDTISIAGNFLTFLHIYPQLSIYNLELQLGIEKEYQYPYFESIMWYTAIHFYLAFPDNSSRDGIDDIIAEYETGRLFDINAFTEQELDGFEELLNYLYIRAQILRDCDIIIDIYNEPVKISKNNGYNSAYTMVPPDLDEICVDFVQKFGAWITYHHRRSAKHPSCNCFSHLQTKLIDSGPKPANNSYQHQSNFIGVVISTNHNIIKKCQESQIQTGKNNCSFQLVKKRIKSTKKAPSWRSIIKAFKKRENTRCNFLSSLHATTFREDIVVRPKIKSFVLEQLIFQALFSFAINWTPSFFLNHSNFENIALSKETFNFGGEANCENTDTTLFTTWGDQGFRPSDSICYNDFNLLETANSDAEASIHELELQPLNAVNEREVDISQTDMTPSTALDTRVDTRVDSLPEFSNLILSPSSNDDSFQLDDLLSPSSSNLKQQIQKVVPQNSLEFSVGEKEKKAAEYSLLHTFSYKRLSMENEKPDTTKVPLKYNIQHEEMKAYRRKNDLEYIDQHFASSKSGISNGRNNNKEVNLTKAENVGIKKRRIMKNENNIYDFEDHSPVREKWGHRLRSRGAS

T2: MBP-Epe1^434-948 (S. pombe, UniProt O94603 434-948)
T2 sequence: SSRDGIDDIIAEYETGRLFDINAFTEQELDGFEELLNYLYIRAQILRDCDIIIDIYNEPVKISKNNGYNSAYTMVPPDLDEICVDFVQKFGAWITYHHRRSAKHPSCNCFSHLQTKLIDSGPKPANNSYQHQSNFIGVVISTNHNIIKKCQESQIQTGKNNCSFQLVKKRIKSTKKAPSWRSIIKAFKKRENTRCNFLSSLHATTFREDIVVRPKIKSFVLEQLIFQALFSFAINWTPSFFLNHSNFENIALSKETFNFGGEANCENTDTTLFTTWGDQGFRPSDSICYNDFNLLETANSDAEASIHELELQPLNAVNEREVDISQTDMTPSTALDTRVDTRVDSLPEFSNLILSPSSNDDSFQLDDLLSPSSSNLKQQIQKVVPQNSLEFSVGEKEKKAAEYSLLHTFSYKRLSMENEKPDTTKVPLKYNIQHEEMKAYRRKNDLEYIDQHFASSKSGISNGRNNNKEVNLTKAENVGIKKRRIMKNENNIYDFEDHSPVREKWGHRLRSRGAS

B1: 3X FLAG-Swi6^HP1 (recombinant, E. coli) (natural protein)
chain: MKKGGVRSYRRSSTSKRSVIDDDSEPELPSMTKEAIASHKADSGSSDNEVESDHESKSSSKKLKENAKEEEGGEEEEEDEYVVEKVLKHRMARKGGGYEYLLKWEGYDDPSDNTWSSEADCSGCKQLIEAYWNEHGGRPEPSKRKRTARPKKPEAKEPSPKSRKTDEDKHDKDSNEKIEDVNEKTIKFADKSQEEFNENGPPSGQPNGHIESDNESKSPSQKESNESEDIQIAETPSNVTPKKKPSPEVPKLPDNRELTVKQVENYDSWEDLVSSIDTIERKDDGTLEIYLTWKNGAISHHPSTITNKKCPQKMLQFYESHLTFRENE

Experiments:
Assay in all cases: pull-down
[1] = target: B1
[2] = target: T1, MBP-Epe1 (wild-type, recombinant, full …)
[3] = target: T2, MBP-Epe1^434-948

| binding result [1] | binding result [2] | binding result [3] | Binder |
| --- | --- | --- | --- |
| binds | – | – | MBP-Epe1^434-600 (domain or fragment) SSRDGIDDIIAEYETGRLFDINAFTEQELDGFEELLNYLYIRAQILRDCDIIIDIYNEPVKISKNNGYNSAYTMVPPDLDEICVDFVQKFGAWITYHHRRSAKHPSCNCFSHLQTKLIDSGPKPANNSYQHQSNFIGVVISTNHNIIKKCQESQIQTGKNNCSFQLV |
| – | binds | – | 3X-FLAG Swi6^HP1 W104A (natural protein) MKKGGVRSYRRSSTSKRSVIDDDSEPELPSMTKEAIASHKADSGSSDNEVESDHESKSSSKKLKENAKEEEGGEEEEEDEYVVEKVLKHRMARKGGGYEYLLKAEGYDDPSDNTWSSEADCSGCKQLIEAYWNEHGGRPEPSKRKRTARPKKPEAKEPSPKSRKTDEDKHDKDSNEKIEDVNEKTIKFADKSQEEFNENGPPSGQPNGHIESDNESKSPSQKESNESEDIQIAETPSNVTPKKKPSPEVPKLPDNRELTVKQVENYDSWEDLVSSIDTIERKDDGTLEIYLTWKNGAISHHPSTITNKKCPQKMLQFYESHLTFRENE |
| – | binds | binds | B1 |
| – | binds | – | 3X FLAG-Swi6^HP1 purified from fission yeast cells (natural protein) MKKGGVRSYRRSSTSKRSVIDDDSEPELPSMTKEAIASHKADSGSSDNEVESDHESKSSSKKLKENAKEEEGGEEEEEDEYVVEKVLKHRMARKGGGYEYLLKWEGYDDPSDNTWSSEADCSGCKQLIEAYWNEHGGRPEPSKRKRTARPKKPEAKEPSPKSRKTDEDKHDKDSNEKIEDVNEKTIKFADKSQEEFNENGPPSGQPNGHIESDNESKSPSQKESNESEDIQIAETPSNVTPKKKPSPEVPKLPDNRELTVKQVENYDSWEDLVSSIDTIERKDDGTLEIYLTWKNGAISHHPSTITNKKCPQKMLQFYESHLTFRENE |
